Laboratory results as given in patent US20160340704A1, “METHOD OF MAKING A BENZYLISOQUINOLINE ALKALOID (BIA) METABOLITE, ENZYMES THEREFORE” (VALORBEC SOCIÉTÉ EN COMMANDITE, priority 2014, published 2016).

Assays:
nandinine = test: CYP719 Ring B closure of nandinine to stylopine in GC1333; format: cell-based, Saccharomyces cerevisiae
Protocol: (§1) FIG. 11A-B: showing conversion of (S)-cheilanthifoline (FIG. 11A) or (S)-nandinine (FIG. 11B) to (S)-stylopine by purchased CYP719s. Plasmids harboring CYP719s were transformed into GC1333 containing an integrated PsCPR. Strains were incubated with the appropriate BIA overnight, and then total BIAs were extracted and total molar ratios were compared. PsSPSΔN was used as a control.
(§2) The 10 CYP719s with 95% activity on Ring A of scoulerine and the 10 CYP719s with activity on Ring B of scoulerine were tested for activity on cheilanthifoline and nandinine, respectively, in order to generate a branched stylopine synthesis pathway. […] CYP719s PsCFS and EX101, capable of converting >98% of scoulerine to cheilanthifoline and nandinine, respectively, were incubated with scoulerine. After 16 h, cells were pelleted and the supernatant fraction was collected. The supernatant was then applied to fresh yeast strains in order to supplement them with either TE containing nandinine or cheilanthifoline as necessary.

scoulerine = test: CYP719s in GC1316 (integrated PsCPR and PsCFS) supplemented with scoulerine; format: cell-based, Saccharomyces cerevisiae; conditions: CYP719 expressed with PsCFS and PsCPR
Description: Plasmids harboring CYP719s were transformed into either GC1333 containing an integrated PsCPR (FIG. 10A) or GC1316 containing an integrated PsCPR and an integrated PsCFS (FIG. 10B). Strain GC1333, harboring PsCPR integrated into the chromosome, was transformed with pBOT plasmids, with GFP removed, harboring individual CYP719s (CYP719 EX41-105). (See Tables 7-8 below presenting the nature and activity of these CYP719s).
Plasmids harboring individual CYP719s were transformed into strain GC1316, which harbored PsCPR and PsCFS integrated into the genome. Strains were supplemented with scoulerine and after 16 hours total BIAs were extracted and the molar ratio was compared (FIG. 10B). The four possible BIAs that could be extracted were scoulerine, the single Ring A product nandinine, the single Ring B product cheilanthifoline, and the double Ring A, Ring B product stylopine.

cheilanthifoline = test: CYP719 Ring A closure of cheilanthifoline to stylopine in GC1333; format: cell-based, Saccharomyces cerevisiae
Protocol: as §1, §2

[1] = Microsomal cytochrome P450 enzyme assay of PsCFS and PsSPSΔN incubated with (S)-scoulerine; format: biochemical, Papaver somniferum; conditions: microsomes with PsCPR; 125 μM (S)-scoulerine, 500 μM NADPH
Protocol: The pESC-CPR vector encoding opium poppy cytochrome P450 reductase (PsCPR) fused to a c-Myc tag was used for the heterologous expression of plant proteins in S. cerevisiae^25. The amplicon was inserted into NotI and SpeI restriction sites of pESC-CPR in-frame with a FLAG-tag sequence yielding pESC-CPR/CFS. […]
Analysis of enzyme assays was performed using an Agilent™ 1200 liquid chromatography system equipped with a 6410 triple-quadrupole mass spectrometer (Agilent Technologies; Santa Clara, Calif.). […] Scoulerine, cheilanthifoline, and stylopine were detected in multiple reaction monitoring (MRM) mode using a collision energy of 25 eV and monitored transitions of m/z 328→178, 326→178 and 324→176, respectively.
Constructs for the heterologous expression of PsCFS and PsSPS in S. cerevisiae were assembled in a vector harbouring PsCPR (Table 1 above). […] No conversion of scoulerine was detected in the negative control. […]

Row | Molecule | conversion of nandinine to stylopine (nandinine) [%] | residual cheilanthifoline (scoulerine) | also measured
1 | EX98: CYP719 from Stylophorum diphyllum, SEQ ID NO: 377 (protein, listed as Stylophorum diphyllum) MEESFWLVTATVVVVFVIAKLQFRKSSSISTMEWPAGPKTLPIIGNLHQLGGAALHVVLANLAKAYGSVMTIWVGSWRPMIVISDFDKAWEVLVNKSSDYSARSLPEITRIISANWKNIMTSDSGPFWQNLRKGLQSGALSPHNVMSQYQLQERDMQNLIKTMRVEAFKNNGRIKPLDHLKQETVRLLSRLIFGQDFNDEKLVVGMHHALDDLVRISGYASLADAFKFAENLPSHKKSIREVHELKKRVENLVRPHIVSNPPTNTYLNFLQSQNFSEDLIISAILEVYDLGVDSTASTTVWALTFLVRELKVQEKLYQEIKNLTGGRSTVKVEEVSKMPYLQAVMKETMRMKPIAPMAIPHTAARETSLMGKKIDKGTVVMVNLYAIHHNPNIFPEPYKFMPERFLHGEEQNGGNIKEMEQSLLPFSAGMRICAGMELGKLQLGFALASLVNAFKWECAVDGKLPDMSEDHCFILLMKNPLEAKITPRTH | > 98 |  | 
2 | EX60: CYP719 from Eschscholzia californica, BAG75114.1, SEQ ID NO: 339 (protein, listed as Eschscholzia californica) MEEMKFLMMNNPWVLTATFTTLLISIFLFVTRKTSNTEWPNGPKTLPIIGNMHLLGGTKALQVILHNLAKVYGGVMTIWIGSWRPVIIVSDIERAWEVLVNKSSDYSARELPEIIKYNAANFRTIATCDSGPHWSNLRKGLQNVALSPHNLAAQFQFQEKDITKMIQNLEVEAKNNNGIVQPLDHLKKATIRLISRLIFGQDFDEDTYVEKLHHTIDELIRMSGYAQLAEAFYYARYLPNHKKAVNHAAKTKQIVTHLMRPFLSLNPPTNSYLHFLQSQNYDEELIIFSIFEVYLLGVDSTSSTTAWALAYLVREPNVQETLYQELDNFAKQNDRKILKVEDINKLQYLQAVTKETMRMKPIAPLAIPHKASRDTTLMGKKVEKGTKVMVNLHALHHNENVFNDPYKFMPERFLKSYQGAKAKAMEQSYLPFSAGMRICGGMEVGKLQFGFALANLAYAFKWSCAVNGVLPDMSDELGFVLFMKTPLEARIVRRN |  | residual cheilanthifoline was detected | 
3 | EX50: CYP719 from Coptis japonica, Q948Y1.1, SEQ ID NO: 329 (protein, listed as Coptis japonica) MEMNPLLVCATVAIVFATTTIIRILFSSSSLPQMKWPSGPRKLPIIGNLHQLGDDVLHVALAKLAKVHGSVMTIWIGSWRPVIVISDIEKAWEVLVNKSADYGARDMPEITKIASASWHTISTSDAGSFWQNVRKGLQSGAMGPLNVAAQNQYQERDMKRLIKAMSDEAANNNGIVKPLDHIKKNTVRLLTRLIFGQAFDDNKFIESMHYEIEDIIRISGYARLAEAFYYAKYLPSHKKAEREAFLVKCRVEELVRPLLSSKPPTNSYLYFLLSQNFEEEVIIFCIFELYLLGVDSTSSTTTWALAYLIREQGAQEKLYQDIRMTLGDVDLVKIEDVNKLKYLQGVVKETMRMKPIAPLAIPHKTAKETTLMGTKVAKGTRIMVNLYALHHNQNIWPDPYKFMPERFLEGETGTAYNKAMEQSFLPFSAGMRICAGMDLGKLQFAFALANLVNAFKWSCVEEGKLPDMGEELSFVLLMKTPLEARIAGRNV |  | residual cheilanthifoline was detected | conversion of cheilanthifoline to stylopine (cheilanthifoline): > 98%
4 | EX54: CYP719 from Chelidonium majus, SEQ ID NO: 333 (protein, listed as Chelidonium majus) MEESFWLVAATVLVVFVVAKLLFRKSSSISTMEWPAGPKTLPIIGNLHQLGGAALHVVLANLAKVYGSVMTIWVGAWRPMIVISDIDKAWEVLVNKSSDYSARSLPEITRIISANWKNIMTSDSGPFWQNLRKGLQGGALSPHNVMSQYQLQERDMQNLIKTMRVEASKNNGRIKPLDHLKQETVRLLSRLIFGQDFNDEKLVVGMHHALDDLVRISGYASLADAFKVAENLPSHKKSIREVHELKRRVENLVRPHIVSNPPTNTYLNFLLSQNFSEDLIISAILEVYDLGVDSTASTTVWALTFLVREQKVQEKLYQEIKNLTGGRSTVKVEEVSKMPYLQAVMKETMRMKPIAPMAIPHTAARETSLMGKKIDKGTVVMVNLYAIHHNPNIFPEPYKFMPERFLHGEEQNGGNIKEMEQSLLPFSAGMRICAGMELGKLQLGFALASLVNAFKWECAADGKLPDLSEDHCFILLMKNPLEAKITPRTH | > 98 |  | 
5 | EX94: N-truncated Papaver somniferum stylopine synthase (CYP719A20) with lettuce germacrene A oxidase N-terminal domain, SEQ ID NO: 373 (protein, listed as Papaver somniferum) MELSITTSIALATIVFFLYKLATRPKSTKKQLPEASRLPIIGHKRKKSSTMVWPTGPKTLPIIGNMHVLGGTALQVVLHNLAKIHGNVMTIWIGSWRPVIVVSDIDRAWEVLVNKSSDYSARDMPEITKIISADWKTISTSDSGPGWSNLRKGLQNVALSPHNLAAQSQFQEKDITKMIQSLKKEAASNNGIVKPIDHLKKATLRLISRLIFGQDFDDDKYVDDMHHAIEELIRVSGYAQLAEAFYYAKYLPSHKKAVRDVEEANQRVKKLVRPFLSLNPPTNTYLHFLNSQKYDEEVIIFAIFEAYLLGVDSTSLTTAWALAFLIREPVVQDKLYQELKNLTAKNDCEIVKVEDLNKLQYLQAVLKETMRMKPIAPLAIPHKACRDTSLKGNKIDQGTQVMVNIYALHHNEKVWKEPFKFMPERFLQTQDVVNGKGMEQSLLPFSAGMRICAGMELGKLQFSFSLANLVNAFEWSCVSDGVLPDMSDQLGFVLLMKTPLQARIVPRV |  |  | conversion of (S)-scoulerine by microsomal proteins (LC-MS products) [1]: converted to cheilanthifoline and stylopine
6 | EX72: CYP719 from Nandina domestica, SEQ ID NO: 351 (protein, listed as Nandina domestica) MDPMSLWAAIAIVLVMTLLVLLQTRTKSLPSSSTQWPTGPKTLPIIGNLHQLEGDVFHVALAKLAKMHGDIMTIWIGSWRPVIVISDYDKAWEVLVNKSSDYSARDMPEITKIASAGWRTISLSSSGPFWHTLRKGLQNGPFGPLNVSAQILSQERDMRRMIRDMQEEADINGGIVKPLGHLKKATVGLLTRLIFGQNFDDDSFIESIHHETEELIRISGYARLAEAFSYAKYLPSHRRAVKESYECKHRVEELVKPLLSSNPPKNSYLNFLQSQDYPEEVIIFCIFEIYLLGVDSTSSTTTWALAFLIHEPAVQEKLYQEVKCITNGDGGLVKAGDLSKFQYLQAVMKETMRMKPIAPLAIPHTTSKDTTLMGTKVAKGTRIMVNLYALHHNPNIWSEPFKFMPERFLQEQFNGVGGDANVKAIEQSFLPFSAGMRICAGMDLGKLQFSFALANLVNAFKWTTVADGKFPDMNEELSFVLLMKTPLEARIVPRKP |  | residual cheilanthifoline was detected | 
